Data taken from paper PMC4583379.

Columns and labels:
[1] = anti-PilA western, cell-wall extracts, stationary phase; details: glycan lost; control: wild type NEM316
[2] = anti-PilA western, membrane extracts, exponential phase; details: glycan lost; control: wild type NEM316
[3] = anti-PilA western, cell-wall extracts, exponential phase; details: glycan lost; control: wild type NEM316
[4] = flow cytometry with anti-PilA antiserum; details: glycan lost; control: wild type NEM316
[5] = anti-PilA western, supernatants of nisin-induced secreted PilA; details: glycan lost; control: wild-type PilAΔCWA

B1: PilA (Gbs1478), PI-2a pilus tip adhesin: N427Q (protein)
parent chain: MRKYQKFSKILTLSLFCLSQIPLNTNVLGESTVPENGAKGKLVVKKTDDQNKPLSKATFVLKTTAHPESKIEKVTAELTGEATFDNLIPGDYTLSEETAPEGYKKTNQTWQVKVESNGKTTIQNSGDKNSTIGQNHEELDKQYPPTGIYEDTKESYKLEHVKGSVPNGKSEAKAVNPYSSEGEHIREIPEGTLSKRISEVGDLAHNKYKIELTVSGKTIVKPVDKQKPLDVVFVLDNSNSMNNDGPNFQRHNKAKKAAEALGTAVKDILGANSDNRVALVTYGSDIFDGRSVDVVKGFKEDDKYYGLQTKFTIQTENYSHKQLTNNAEEIIKRIPTEAPRAKWGSTTNGLTPEQQKQYYLSKVGETFTMKAFMEADDILSQVDRNSQKIIVHITDGVPTRSYAINNFKLGASYESQFEQMKKNGYLNKSNFLLTDKPEDIKGNGESYFLFPLDSYQTQIISGNLQKLHYLDLNLNYPKGTIYRNGPVREHGTPTKLYINSLKQKNYDIFNFGIDISAFRQVYNEDYKKNQDGTFQKLKEEAFELSDGEITELMKSFSSKPEYYTPIVTSSDASNNEILSKIQQQFEKVLTKENSIVNGTIEDPMGDKINLQLGNGQTLQPSDYTLQGNDGSIMKDSIATGGPNNDGGILKGVKLEYIKNKLYVRGLNLGEGQKVTLTYDVKLDDSFISNKFYDTNGRTTLNPKSEDPNTLRDFPIPKIRDVREYPTITIKNEKKLGEIEFTKVDKDNNKLLLKGATFELQEFNEDYKLYLPIKNNNSKVVTGENGKISYKDLKDGKYQLIEAVSPKDYQKITNKPILTFEVVKGSIQNIIAVNKQISEYHEEGDKHLITNTHIPPKGIIPMTGGKGILSFILIGGSMMSIAGGIYIWKRYKKSSDISREKD
no change: stability_or_folding [1] | expression_or_secretion [2] | expression_or_secretion [3] | expression_or_secretion [4] | stability_or_folding [5]

B2: PilA (Gbs1478), PI-2a pilus tip adhesin: N597Q (protein)
parent chain: B1 parent chain
no change: stability_or_folding [1] | expression_or_secretion [2] | expression_or_secretion [3] | expression_or_secretion [4] | stability_or_folding [5]

B3: PilA (Gbs1478), PI-2a pilus tip adhesin: N427Q-N597Q (protein)
parent chain: B1 parent chain
no change: expression_or_secretion [2] | expression_or_secretion [3] | expression_or_secretion [4]
